Experimental data from patent US20160368960A1.

Key:
[1] = target: rat GLP-1-R (rat) (UniProt P32301); experiment: cell-based or functional assay
[2] = target: human Gcg receptor (human) (UniProt P47871); experiment: cell-based or functional assay
Sequence of human Gcg receptor (human) (P47871 26-477): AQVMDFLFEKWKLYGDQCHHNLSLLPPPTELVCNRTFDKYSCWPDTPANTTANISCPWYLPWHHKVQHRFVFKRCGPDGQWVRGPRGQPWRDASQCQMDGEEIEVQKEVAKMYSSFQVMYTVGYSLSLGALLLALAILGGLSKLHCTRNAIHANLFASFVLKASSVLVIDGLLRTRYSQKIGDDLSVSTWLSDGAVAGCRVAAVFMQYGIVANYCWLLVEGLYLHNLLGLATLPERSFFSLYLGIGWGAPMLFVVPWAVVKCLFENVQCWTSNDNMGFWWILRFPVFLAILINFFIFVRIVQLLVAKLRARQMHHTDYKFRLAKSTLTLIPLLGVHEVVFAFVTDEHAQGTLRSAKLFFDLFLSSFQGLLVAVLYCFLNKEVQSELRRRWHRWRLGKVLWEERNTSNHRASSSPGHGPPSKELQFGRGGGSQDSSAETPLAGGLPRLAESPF

Sequence of Wild type human OXM (ligand) (peptide): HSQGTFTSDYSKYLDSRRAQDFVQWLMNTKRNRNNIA

| Emax (%), cAMP production in INS1 832-3 cells [1] | Emax (%), cAMP production in primary human hepatocytes [2] | Substance |
| --- | --- | --- |
| 107% |  | Semaglutide (peptide) |
|  | 90% | Wild type human OXM (ligand) |
